Where no end group is shown, it is not given here. The star is where a group is joined. Biotin = O=C1N[C@H]2[C@H](CS[C@H]2CCCCC(=O)*)N1

The target in test [1] is T1, human GPR20 protein (human, UniProt Q99678 1-358).
T1 construct: membrane fraction on SDS-PAGE for the Western blot; also called hGPR20; G protein-coupled receptor 20
Kind of test: flow cytometry, hybridoma culture supernatant on 293T cells transiently expressing human GPR20 versus empty-vector 293T cells, anti-rat IgG FITC. The procedure:
The cells were left standing at 4° C. for 1 hour. […] The cells were left standing at 4° C. for 1 hour.

The target of test [2] is T2, GPR20 fragment peptide GLEVPLFHLFARLD (human, SMILES …).
T2 construct: Captured on streptavidin sensor chips
T2 peptide: Biotin-GLEVPLFHLFARLD-NH2
Nature of the test: BLI (Octet RED384), peptide on streptavidin sensor, antibody as analyte, 1:1 model. The text has this: (§1) For the detailed analysis of the epitope, a peptide consisting of amino acid positions 29 to 48 of GPR20, and peptides in which a terminal amino acid residue was continuously truncated one by one from this peptide, were synthesized, and then N-terminally biotinylated and C-terminally amidated to produce a GPR20 fragment peptide library (Sigma-Aldrich Japan G.K.). […] PBS-T was used as a buffer solution, and the sensor chips used were streptavidin sensor chips (manufactured by Pall ForteBio Corp.). […] Subsequently, the sensor chip was dipped in the buffer solution, and a dissociation phase was monitored for 270 seconds. […] The data was analyzed using 1:1 binding models to calculate association rate constant ka, dissociation rate constant kd and dissociation constant KD (KD=kd/ka).

The target of test [3] is T3, GPR20 fragment peptide GLEVPLFHLFARLDEE (human, SMILES …).
T3 construct: Captured on streptavidin sensor chips
T3 peptide: Biotin-GLEVPLFHLFARLDEE-NH2
The test is described as above.
Excerpt: as §1

In test [4] the target is T4, GPR20 fragment peptide VPLFHLFARLDEEL (human, SMILES …).
T4 construct: Captured on streptavidin sensor chips
T4 peptide: Biotin-VPLFHLFARLDEEL-NH2
Described as above.
Excerpt: as §1

For test [5], the target named is T5, GPR20 fragment peptide GLEVPLFHLFARLDEELHGT (human, N-terminally biotinylated and C-terminally amidated).
T5 construct: Captured on streptavidin sensor chips; also called peptide consisting of amino acid positions 29 to 48 of GPR20
T5 peptide: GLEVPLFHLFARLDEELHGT
The test is described as above.
Excerpt: as §1

For test [6], the target named is T6, GPR20 fragment peptide GLEVPLFHLFAR (human, SMILES …).
T6 construct: Captured on streptavidin sensor chips
T6 peptide: Biotin-GLEVPLFHLFAR-NH2
The description is as above.
Excerpt: as §1

Test [7] has as its target T7, GPR20 fragment peptide GLEVPLFHLFARLDEEL (human, SMILES …).
T7 construct: Captured on streptavidin sensor chips
T7 peptide: Biotin-GLEVPLFHLFARLDEEL-NH2
The test is described as above.
Excerpt: as §1

For test [8], the target named is T8, GPR20 fragment peptide EVPLFHLFARLDEEL (human, SMILES …).
T8 construct: Captured on streptavidin sensor chips
T8 peptide: Biotin-EVPLFHLFARLDEEL-NH2
Described as above.
Excerpt: as §1

Test [9] has as its target T9, GPR20 fragment peptide GLEVPLFHLFARLDE (human, SMILES …).
T9 construct: Captured on streptavidin sensor chips
T9 peptide: Biotin-GLEVPLFHLFARLDE-NH2
Described as above.
Excerpt: as §1

Test [10] addresses T10, GPR20 fragment peptide LEVPLFHLFARLDEEL (human, SMILES …).
T10 construct: Captured on streptavidin sensor chips
T10 peptide: Biotin-LEVPLFHLFARLDEEL-NH2
The description is as above.
Excerpt: as §1

The target in test [11] is T11, GPR20 fragment peptide GLEVPLFHLFARL (human, SMILES …).
T11 construct: Captured on streptavidin sensor chips
T11 peptide: Biotin-GLEVPLFHLFARL-NH2
Described as above.
Excerpt: as §1

The target of test [12] is T12, synthetic peptide 2 consisting of amino acid positions 30 to 48 of human GPR20 (human, also: biotinylated, position not given here).
T12 construct: Captured on NeutrAvidin plates
T12 peptide: LEVPLFHLFARLDEELHGT
Nature of the test: peptide-ELISA, biotinylated peptide on NeutrAvidin plate, antibody at 1 µg/mL, anti-rat IgG-peroxidase, chemiluminescence.

The target of test [13] is T13, C-terminally biotinylated synthetic peptide 1 consisting of amino acids at positions 1 to 48 from the … (human, C-terminally biotinylated).
T13 construct: Captured on NeutrAvidin plates
T13 peptide: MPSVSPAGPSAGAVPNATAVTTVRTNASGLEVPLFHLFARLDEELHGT
The description is as above.
Protocol: NeutrAvidin (Pierce/Thermo Fisher Scientific Inc.) diluted to 1 μg/mL with PBS was added at 100 μL/well to 96-well Maxisorp plate (Nunc), and the plate was left standing overnight at 4° C. The solution was removed, and the plate was washed three times with 300 μL/well of PBS containing 0.05% Tween 20 (hereinafter, referred to as PBST). […] The plate was left standing at room temperature for 1 hour. The solution was removed from the plate, and each well was washed three times with PBST. Then, Blocker Casein in PBS (Thermo Fisher Scientific Inc.) was added at 100 μL/well, and the plate was left standing overnight at room temperature. The solution was removed, and each well was washed three times with PBST. […] The solution was removed, and each well was washed three times with PBST. Then, Anti-Rat IgG-Peroxidase antibody produced in rabbit (Jackson ImmunoResearch Laboratories, Inc.) 500-fold diluted with PBS was added at 100 μL/well, and the plate was left standing at room temperature for 1 hour. The solution was removed, and each well was washed three times with PBST. Then, SuperSignal ELISA Pico Chemiluminescent Substrate was added at 100 μl/well, and the plate was left standing at room temperature for 10 minutes, followed by the measurement of chemiluminescence using a plate reader (SpectraMax M3, Molecular Devices, LLC).

For test [14], the target named is T1, human GPR20 protein. Nature of the test: immunohistochemistry on paraffin-embedded GIST430 and GIST430/654 preparations, PC-3 as GPR20-negative control, DAB.
Protocol: Deparaffinization and antigen retrieval were carried out at 97° C. for 40 minutes with an antigen retrieval solution (Target Retrieval Solution High pH; manufactured by Dako/Agilent Technologies Inc.) using a pretreatment system for Autostainer Link (PT Link; manufactured by Dako/Agilent Technologies Inc.). Subsequent staining procedures were carried out at room temperature using an automatic staining apparatus (Dako Autostainer Link 48; manufactured by Dako/Agilent Technologies Inc.). After washing once with EnVision FLEX WASH BUFFER (manufactured by Dako/Agilent Technologies Inc.), Peroxidase Block 3% H2O2 (manufactured by Dako/Agilent Technologies Inc.) was added to the cells, which were then incubated for 5 minutes and washed once with EnVision FLEX WASH BUFFER. Protein Block serum free (manufactured by Dako/Agilent Technologies Inc.) was added to the cells, which were then incubated for 30 minutes. The solution was removed by air blow. A rat monoclonal anti-GPR20 antibody, a rabbit chimeric anti-GPR20 antibody or a rabbit type anti-GPR20 antibody was diluted into 1.0 μg/mL to 10 μg/mL with REAL Antibody Diluent (manufactured by Dako/Agilent Technologies Inc.) and reacted with the cells for 30 minutes.
DAKO Liquid DAB+Substrate Chromogen System was added to the cells, which were then incubated for a total of 10 minutes and then washed once with EnVision FLEX WASH BUFFER. EnVision FLEX Hematoxylin was added to the cells, which were incubated for 5 minutes and then washed a total of three times with EnVision FLEX WASH BUFFER and ion-exchanged water.

B1: rat anti-human GPR20 antibody 04-093 (antibody, rat IgG2b)
heavy: EVQLVESGGGLVQPGRSLKLSCVASGFTFNNYWMTWIRQAPGKGLEWVASITNIDGSSYYPDSVKGRFTISRDNVKSTLYLQMNSLRSEDTATYYCTRGSFDYWGQGVMVTVSSAQTTAPSVYPLAPGCGDTTSSTVTLGCLVKGYFPEPVTVTWNSGALSSDVHTFPAVLQSGLYTLTSSVTSSTWPSQTVTCNVAHPASSTKVDKKVERRNGGIGHKCPTCPTCHKCPVPELLGGPSVFIFPPKPKDILLISQNAKVTCVVVDVSEEEPDVQFSWFVNNVEVHTAQTQPREEQYNSTFRVVSALPIQHQDWMSGKEFKCKVNNKALPSPIEKTISKPKGLVRKPQVYVMGPPTEQLTEQTVSLTCLTSGFLPNDIGVEWTSNGHIEKNYKNTEPVMDSDGSFFMYSKLNVERSRWDSRAPFVCSVVHEGLHNHHVEKSISRPPGK
light: DIQMTQSPSVLSASVGDRVTLNCKASQNVNKYLNWFQQKLGEPPKLLIYNTNNLQTGIPSRFSGSGSGTDYTLTISSLQPEDVATYFCFQHVSWLTFGSGTKLEIKRADAAPTVSIFPPSTEQLATGGASVVCLMNNFYPRDISVKWKIDGTERRDGVLDSVTDQDSKDSTYSMSSTLSLTKADYESHNLYTCEVVHKTSSSPVVKSFNRNEC
notes: Rat IgG2b, kappa, from a hybridoma; the full-length chains were made by linking them to known rat constant regions (IMGT IGHG2B*01, IGKC*01); also called 04-093 antibody; rat anti-GPR20 antibody 04-093
B1: the binding result (with human GPR20 protein [1]; in [12]; in test [13]) was “binds” each time. The Kd is < 0.001 nM in test [2]; < 0.001 nM in test [3]; 5.7 nM in [4]; < 0.001 nM in test [5]; 13 nM in [6]; < 0.001 nM in test [7]. The Kd in [8] is 1.1 nM; in [9], < 0.001 nM; in [10], < 0.001 nM; in test [11] it was 1.1 nM.

B2: rabbit chimeric anti-GPR20 antibody OcChimera (antibody)
heavy: EVQLVESGGGLVQPGRSLKLSCVASGFTFNNYWMTWIRQAPGKGLEWVASITNIDGSSYYPDSVKGRFTISRDNVKSTLYLQMNSLRSEDTATYYCTRGSFDYWGQGVMVTVSSGQPKAPSVFPLAPCCGDTPSSTVTLGCLVKGYLPEPVTVTWNSGTLTNGVRTFPSVRQSSGLYSLSSVVSVTSSSQPVTCNVAHPATNTKVDKTVAPSTCSKPTCPPPELLGGPSVFIFPPKPKDTLMISRTPEVTCVVVDVSQDDPEVQFTWYINNEQVRTARPPLREQQFNSTIRVVSTLPITHQDWLRGKEFKCKVHNKALPAPIEKTISKARGQPLEPKVYTMGPPREELSSRSVSLTCMINGFYPSDISVEWEKNGKAEDNYKTTPAVLDSDGSYFLYNKLSVPTSEWQRGDVFTCSVMHEALHNHYTQKSISRSPGK
light: DIQMTQSPSVLSASVGDRVTLNCKASQNVNKYLNWFQQKLGEPPKLLIYNTNNLQTGIPSRFSGSGSGTDYTLTISSLQPEDVATYFCFQHVSWLTFGSGTKLEIKRDPVAPSVLLFPPSKEELTTGTATIVCVANKFYPSDITVTWKVDGTTQQSGIENSKTPQSPEDNTYSLSSTLSLTSAQYNSHSVYTCEVVQGSASPIVQSFNRGDC
notes: 04-093 variable regions on rabbit IGHG*02 and IGKC2*01 constant regions; also called rabbit chimeric antibody; OcHch/OcLch
Regarding B2, the binding result in the test with human GPR20 protein [14] is on record as “binds”.

B3: rabbit type anti-GPR20 antibody OcH1L1 (antibody, V domains shown)
VH: EVQLKESGGGLVKPGGSLKLCCKASGFTFNNYWMTWIRQAPGKGLEWIASITNIDGSSYYASWVNGRFTLSRDNAQSTVCLQLNSLTAADTATYFCTRGSFDYWGQGTLVTVSS
VL: DIVMTQTPSPVSAAVGGTVTINCKASQNVNKYLNWFQQKPGQPPKLLIYNTNNLQTGVPSRFSGSGSGTDYTLTISGVQCDDAATYYCFQHVSWLTFGGGTEVVVKG
notes: CDR-grafted rabbit type form of 04-093; also called OcH01/OcL01
As to B3, in the test with human GPR20 protein [14], the binding result was “binds”.

B4: rabbit type anti-GPR20 antibody OcH2L1 (antibody, V domains shown)
VH: EVQLKESGGGLVKPGGSLKLSCKASGFTFNNYWMTWIRQAPGKGLEWIASITNIDGSSYYPDSVKGRFTISRDNAQSTLYLQLNSLTAADTATYFCTRGSFDYWGQGTLVTVSS
VL: DIVMTQTPSPVSAAVGGTVTINCKASQNVNKYLNWFQQKPGQPPKLLIYNTNNLQTGVPSRFSGSGSGTDYTLTISGVQCDDAATYYCFQHVSWLTFGGGTEVVVKG
notes: CDR-grafted rabbit type form of 04-093; also called OcH02/OcL01
With B4, the binding result with human GPR20 protein [14] is “binds”.

The values above are taken from patent US20200017583A1 (Daiichi Sankyo, published 2020).
